Laboratory results reported in patent publication US8106168B2, “Metalloproteinase binding proteins” (Dyax Corp., priority 2005, dated 2012).

The molecules below were run against MMP-14 (Homo sapiens, UniProt P50281) (assay: Selection and phage ELISA screening of anti-MMP-14 Fabs). Settings: Fab from FAB310 phage display library.
Type: binding
Protocol: Strategy I: A 100-fold excess of the FAB310 library (e.g., an amount of the library that should contain 100 copies of each library member) was depleted of streptavidin-binding antibodies by incubating the library with 200 μL of streptavidin beads for 1 hour at room temperature (RT) with rotation. 500 nM of biotinylated MMP-14 was coupled to streptavidin beads by incubation with 100 μL of streptavidin beads. The MMP-14 beads were then incubated with the streptavidin-depleted library for 1 hour at RT with rotation. The beads were then rinsed three times with 2% MTRIS/0.1% Tween, transferred to a fresh tube and washed an additional three times with 2% MTRIS/0.1% Tween, and transferred to a fresh tube and washed a final time with Round 1 TRIS buffer (50 mM TRIS; 50 mM CaCl2; 150 mM NaCl, pH 7.5).
MMP-14 binding antibodies were eluted from the beads by re-suspension in 1 mL 2% MTRIS containing 2.5 μM TIMP-2 and incubation for 1 hour at RT with rotation. The beads were then washed three times with 2% MTRIS/0.1% Tween, transferred to a fresh tube and washed three times with TRIS/0.1% Tween, and transferred to a fresh tube and washed a final time with TRIS. 1 mL output was used for infection of 9 mL TG1 bacteria (grown to OD600=0.5). The beads were further eluted by suspension in 1 mL 100 mM TEA for 10 minutes. The supernatant was neutralized with 500 μl TRIS/HCl pH 7.5. 1 mL of the second elution was used for infection of 9 mL TG1 bacteria (grown to OD600=0.5).
Two additional rounds of selection were carried out under the same conditions as the first round, except that the streptavidin beads were loaded with 100 nM biotinylated MMP-14 and the number of washes were doubled (6 times with 2% MTRIS/0.1% Tween, 6 times with TRIS/0.1% Tween and 2 times with TRIS), and Round 2/3 Tris buffer (50 mM TRIS; 5 mM CaCl2; 150 mM NaCl pH=7.5) was used for incubation and wash.
TIMP-2 was coupled to carboxylic beads, then complexed with a combination of biotinylated MMP-14 (500 nM each). The complexed beads were incubated with a 100 fold excess of FAB310 library that had been previously depleted by incubation with streptavidin beads and carboxylic beads. Elution/washing was carried out as for Strategy I.
Two additional rounds of selection were carried out, essentially as described for Strategy I, except that only 100 nM of each of MMP-14 were used in the bead complexes.
384-well plates were coated with biotinylated BSA (2 μg/ml in 50 mM TRIS; 5 mM CaCl2; 150 mM NaCl, pH 7.5), then washed 3 times with 50 mM TRIS; 5 mM CaCl2; 150 mM NaCl, pH 7.5; 0.1% Tween. Streptavidin was captured on the coated plates by incubation with 10 μg/mL streptavidin in 50 mM TRIS; 5 mM CaCl2; 150 mM NaCl pH 7.5; 0.5% Gelatin, followed by a wash with 50 mM TRIS; 5 mM CaCl2; 150 mM NaCl pH=7.5; 0.1% Tween. On the day the assay was to be performed, biotinylated MMP-14 (1 μg/ml) was captured in 50 mM TRIS; 5 mM CaCl2; 150 mM NaCl, pH 7.5.
95 clones were picked from each of Round 2 and Round 3 of each selection strategy, producing 12 masterplates. ELISA was run on the MiniTrak-5 deck according to SOP.

Molecule	bind to human MMP-14
M0041-B11: Fab that binds human MMP-14; DNA LV SEQ ID NO: 108, HV SEQ ID NO: 109 (antibody, V domains shown, Synthetically generated oligonucleotide) VL: QSVLTQDPAVSVALGQTVRITCQGDSLRSYSASWYQRKPGQAPLLVIYRKTNRPSGIPDRFSGSSSGNTASLTITGAQAEDESDYYCNSRDSSGNHLFGGGTKLTVL VH: EVQLLESGGGLVQPGGSLRLSCAASGFTFSQYSMHWVRQAPGKGLEWVSSIVPSGGMTAYADSVKGRFTISRDNSKNTLYLQMNSLRAEDTAVYYCAKISRGNDAFDIWGQGTMVTVSS	bind to human MMP-14
M0041-A05: Fab that binds human MMP-14; DNA LV SEQ ID NO: 104, HV SEQ ID NO: 105 (antibody, V domains shown, Synthetically generated oligonucleotide) VL: QDIQMTQSPSSLSASVGDRVTITCRASQNINSYLNWYQQKPGKAPKLLIYAASSLQSGVPSRFSGSGSGTDFTLTISSLQPEDFVTYYCQQSYSTPKTFGQGTKVEIK VH: EVQLLESGGGLVQPGGSLRLSCAASGFTFSVYTMHWVRQAPGKGLEWVSVIYPSGGLTIYADSVKGRFTISRDNSKNTLYLQMNSLRAEDTAVYYCARNRGYYAPMDVWGQGTTVTVSS	bind to human MMP-14
M0041-B03: Fab that binds human MMP-14; DNA LV SEQ ID NO: 106, HV SEQ ID NO: 107 (antibody, V domains shown, Synthetically generated oligonucleotide) VL: QDIQMTQSPATLSASVGDRVTISCRASQNISNWLAWYQQKPGKAPKLLIYTASTLHRGVPSRFSGSGSGTDFTLTITSLQPEDFATYYCQQANTFPWTFGQGTKVEIK VH: EVQLLESGGGLVQPGGSLRLSCAASGFTFSMYMMWWVRQAPGKGLEWVSVISSSGGFTSYADSVKGRFTISRDNSKNTLYLQMNSLRAEDTAVYYCARLRYSNFVGGLDVWGQGTTVTVSS	bind to human MMP-14
M0040-F03: Fab that binds human MMP-14; DNA LV SEQ ID NO: 96, HV SEQ ID NO: 97 (antibody, V domains shown, Synthetically generated oligonucleotide) VL: QDIQMTQSPLSLPVTPGEPASISCRSGQSLLHSNGYNYLNWYLQKPGQSPQLLIYLGSYRASGVPDRFSGSGSGTDFTLKISRVEAEDVGLYYCMQALQTPLTFGVGTKVEIK VH: EVQLLESGGGLVQPGGSLRLSCAASGFTFSMYVMSWVRQAPGKGLEWVSSISSSGGNTGYADSVKGRFTISRDNSKNTLYLQMNSLRAEDTAVYYCAKSSLYYDILAGPGFDYWGQGTLVTVSS	bind to human MMP-14
M0040-H09: Fab that binds human MMP-14; DNA LV SEQ ID NO: 102, HV SEQ ID NO: 103 (protein, Synthetically generated oligonucleotide) chain 1: QSELTQDPAVSVALGQAVIITCQGDSLRTYYPSWYQQKPGQAPTLLVYGKNKRPSGVPDRFSGSRSGDTASLIITGAQAEDDADYYCNSRDGSGHLFVFGPGTTVTVL chain 2: EVQLLESGGGLVQPGGSLRLSCAASGFTFSLYPMQWVRQAPGKGLEWVSYIRSSGGKTHYADSVKGRFTISRDNSKNTLYLQMNSLRAEDTAVYYCARVGMGSGWYTGYFDLWGRGTLVTVSS	bind to human MMP-14
M0040-G04: Fab that binds human MMP-14; DNA LV SEQ ID NO: 98, HV SEQ ID NO: 99 (antibody, V domains shown, Synthetically generated oligonucleotide) VL: QSVLTQPPSASGTPGQRVTISCSGSRTNIGSDYVYWYQQLPGTAPKLLIYRNNERPSGVPDRFSGFKSGTSASLAISGLRSEDEADYYCASWDDRLSGPVFGGGTKLTVL VH: EVQLLESGGGLVQPGGSLRLSCAASGFTFSQYHMLWVRQAPGKGLEWVSVIVSSGGFTFYADSVKGRFTISRDNSKNTLYLQMNSLRAEDTAVYYCARSYGGDAFDIWGQGTMVTVSS	bind to human MMP-14
M0040-H04: Fab that binds human MMP-14; DNA LV SEQ ID NO: 100, HV SEQ ID NO: 101 (antibody, V domains shown, Synthetically generated oligonucleotide) VL: QDIQMTQSPDSLAVSLGERATLNCRSSQSVLYSPNNKNYLAWYQQKAGQPPKLLIYWASFRESGVPERFSGSGSGTDFTLTISSLQAEDVAVYYCQQYHTPPWTFGQGTKVEIK VH: EVQLLESGGGLVQPGGSLRLSCAASGFTFSSYDMVWVRQAPGKGLEWVSSISPSGGNTQYADSVKGRFTISRDNSKNTLYLQMNSLRAEDTAVYYCAKVAAMAPWYFDYWGQGTLVTVSS	bind to human MMP-14

More lines, now with the values ahead:

bind to human MMP-14	Molecule
bind to human MMP-14	M0041-E11: Fab that binds human MMP-14; DNA LV SEQ ID NO: 116, HV SEQ ID NO: 117 (protein, Synthetically generated oligonucleotide) chain 1: QDIQMTQSPSSLSAFVGDRVIITCRASQDISVYVNWYQQSSGKAPKLLIYGASSLQSGVPSRFSGSGSGTDFTLTISSLQPEDFASYFCQQSYNLPFTFGGGTNVQIK chain 2: EVQLLESGGGLVQPGGSLRLSCAASGFTFSQYNMQWVRQAPGKGLEWVSGIVPSGGWTPYADSVKGRFTISRDNSKNTLYLQMNSLRAEDTAVYYCARGVRYGLDYWGQGTLVTVSS
bind to human MMP-14	M0041-H11: Fab that binds human MMP-14; DNA LV SEQ ID NO: 120, HV SEQ ID NO: 121 (antibody, V domains shown, Synthetically generated oligonucleotide) VL: QSELTQDPAVSVALGQTVRITCQGDSLRSYYASWYQQKPGQAPVLVIYGKNNRPSGIPDRFSGSSSGNTASLTITGAQAEDEADYYCNSRDSSGNHVVFGGGTKLTVL VH: EVQLLESGGGLVQPGGSLRLSCAASGFTFSMYPMNWVRQAPGKGLEWVSSISSSGGWTKYADSVKGRFTISRDNSKNTLYLQMNSLRAEDTAVYYCARVFFGYDSSGYPYYYYGMDVWGQGTTVTVSS
bind to human MMP-14	M0041-C11: Fab that binds human MMP-14; DNA LV SEQ ID NO: 110, HV SEQ ID NO: 111 (antibody, V domains shown, Synthetically generated oligonucleotide) VL: QDIQMTQSPSSLSASVGDRVTITCRASQRIGSYLNWYQQNSGKAPRLLIYGASNLESGVPSRFSGRGSGTDFTLTISSLQPEDFATYYCQQSNSTPHTFGQGTKVEIK VH: EVQLLESGGGLVQPGGSLRLSCAASGFTFSQYPMSWVRQAPGKGLEWVSSIGPGGWTWYADSVKGRFTISRDNSKNTLYLQMNSLRAEDTAVYYCARTATRIFGVVIMGRAFDIWGQGTMVTVSS
bind to human MMP-14	M0041-H09: Fab that binds human MMP-14; DNA LV SEQ ID NO: 118, HV SEQ ID NO: 119 (antibody, V domains shown, Synthetically generated oligonucleotide) VL: QDIQMTQSPGTLSLSPGERATLSCRASQSLSGDYLAWYQQKIGQAPRLLIFGASRRPTGIPDRFSGSGSGTDFALTISRLEPEDFAVYYCQQYGSLITFGQGTRLEIK VH: EVQLLESGGGLVQPGGSLRLSCAASGFTFSVYEMTWVRQAPGKGLEWVSGIGSSGGMTFYADSVKGRFTISRDNSKNTLYLQMNSLRAEDTAVYYCARIRYSGSYGWHYMDVWGKGTTVTVSS
bind to human MMP-14	M0041-D03: Fab that binds human MMP-14; DNA LV SEQ ID NO: 112, HV SEQ ID NO: 113 (antibody, V domains shown, Synthetically generated oligonucleotide) VL: QDIQMTQSPSSLSASVGDRITVTCRASQSITNYLNWYQQKPGKAPKLLIYAASTLQSGVPSRFSGSGSGTDFTLTISRLEPEDFAVYYCQQYGSSPTFGQGTKVEVK VH: EVQLLESGGGLVQPGGSLRLSCAASGFTFSFYNMTWVRQAPGKGLEWVSSIYSSGGNTDYADSVKGRFTISRDNSKNTLYLQMNSLRAEDTAVYYCARDSLSHYYYGMDVWGQGTTVTVSS
